Experimental findings from PMC10512822 are described below.

The target in the assay is translocated ALK of ALK-translocated NSCLC tumors (n = 6) (human (endogenous in NSCLC tumors)). Nature of the assay: proximity ligation; Duolink PLA with mouse HER3 and rabbit ALK antibodies on FFPE sections of ALK-translocated NSCLC tumors (n = 6).

Turning to “human epidermal growth factor receptor 3 (from UniProt P21860 20-1342)”, the mean signal for PLA per cell (signals per cell) was 17.2.
